Assay results: patent US20110091968A1 (KABUSHIKI KAISHA HAYASHIBARA SEIBUTSU KAGAKU KENKYUJO, published 2011)
Values belong to the binder of their own block, whether it stands above or below them.

Experiments:
Test in all cases: Western blotting
[1] = target: T1, recombinant human IFNα subtype α10 (human, UniProt P01566 24-189)
T1 construct: also called rIFNα10; IFNα10
Text: (§1) Proteins, contained in a part of the gel ranging from about 20 to about 29 kilo daltons (abbreviated as “kDa”, hereinafter) corresponding to the molecular weights of the proteins of IFNs, were transferred to a nitrocellulose membrane and soaked in “BlockAce”, a product name of a blocking solution to inhibit non-specific reaction commercialized by Dainippon Sumitomo Pharma, Co., Ltd., Tokyo, Japan. The resulting nitrocellulose membrane after the blocking treatment was soaked in a solution, containing 2 μg/ml of any of the nine monoclonal antibodies purified by using PROTEIN G SEPHAROSE, at ambient temperature for one hour, and washed with 50 mM Tris-HCl buffer (pH 7.5) containing 0.05% (v/v) tween 20 to remove excessive amounts of antibodies. The resulting nitrocellulose membrane was soaked in a solution containing an HRP labelled anti-mouse immunoglobulin or anti-rat immunoglobulin (both of which are commercialized by DakoCytomation, Denmark) at ambient temperature for one hour. The resulting membrane was washed with 50 mM Tris-HCl buffer (pH 7.5) containing 0.05% (v/v) tween 20 for 30 min and subjected to a color reaction by using commercialized “ECL western blotting detection reagent and Hyperfilm ECL”, a product name of a Western blotting detection kit commercialized by GE Healthcare Biosciences, Tokyo, Japan.

[2] = target: T2, recombinant human IFNα subtype α6 (human, UniProt P05013 24-189, limits assumed)
T2 construct: also called rIFNα6; IFNα6
Text: as §1

[3] = target: T3, recombinant human IFNα subtype α1 (human, UniProt P0DY56 24-189)
T3 construct: also called rIFNα1; IFNα1
Text: as §1

[4] = target: T4, recombinant human IFNα subtype α5 (human, UniProt P01569 24-189, limits assumed)
T4 construct: also called rIFNα5; IFNα5
Text: as §1

human IFNγ = target: T5, human IFNγ (human, UniProt P01579 24-166, limits assumed)
T5 sequence (looked up): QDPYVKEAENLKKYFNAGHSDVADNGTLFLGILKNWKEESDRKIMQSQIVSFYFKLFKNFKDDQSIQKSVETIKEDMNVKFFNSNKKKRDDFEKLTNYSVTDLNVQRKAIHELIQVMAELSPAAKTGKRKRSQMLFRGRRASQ

[5] = target: T6, human tumor necrosis factor (human, UniProt P01375 77-233)
T6 construct: also called human TNFα; TNFα

human IFNβ = human IFNβ (human, UniProt P01574 22-187)
Chain of human IFNβ (P01574 22-187 limits assumed): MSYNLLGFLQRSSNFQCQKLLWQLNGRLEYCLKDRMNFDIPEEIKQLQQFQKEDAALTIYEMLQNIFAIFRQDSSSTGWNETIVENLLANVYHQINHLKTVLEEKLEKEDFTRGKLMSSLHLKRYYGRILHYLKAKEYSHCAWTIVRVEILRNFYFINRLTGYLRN

T3 sequence (P0DY56 entry or part of it limits assumed): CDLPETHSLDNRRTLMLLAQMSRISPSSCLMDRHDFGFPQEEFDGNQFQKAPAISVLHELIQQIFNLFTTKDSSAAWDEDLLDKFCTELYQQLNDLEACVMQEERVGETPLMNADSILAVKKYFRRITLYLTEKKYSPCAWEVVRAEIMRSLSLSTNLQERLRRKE
T4 sequence (P01569 24-189 limits assumed): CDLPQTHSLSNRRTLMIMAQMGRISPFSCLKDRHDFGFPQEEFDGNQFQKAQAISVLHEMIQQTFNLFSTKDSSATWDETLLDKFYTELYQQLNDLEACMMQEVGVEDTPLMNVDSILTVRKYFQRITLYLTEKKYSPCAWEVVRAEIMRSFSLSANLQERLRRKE
T1 sequence (P01566 24-189 limits assumed): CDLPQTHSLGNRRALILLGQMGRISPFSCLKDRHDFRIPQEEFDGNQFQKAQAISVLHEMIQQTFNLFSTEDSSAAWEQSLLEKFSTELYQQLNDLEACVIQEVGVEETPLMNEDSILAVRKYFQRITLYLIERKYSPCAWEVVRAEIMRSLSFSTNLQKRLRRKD
T6 sequence (P01375 77-233 limits assumed): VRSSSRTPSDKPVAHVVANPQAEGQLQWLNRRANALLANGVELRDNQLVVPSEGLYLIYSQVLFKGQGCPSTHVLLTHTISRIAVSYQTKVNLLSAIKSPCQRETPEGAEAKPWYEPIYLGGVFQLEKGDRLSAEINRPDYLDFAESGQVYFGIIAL
T2 sequence (P05013 24-189 limits assumed): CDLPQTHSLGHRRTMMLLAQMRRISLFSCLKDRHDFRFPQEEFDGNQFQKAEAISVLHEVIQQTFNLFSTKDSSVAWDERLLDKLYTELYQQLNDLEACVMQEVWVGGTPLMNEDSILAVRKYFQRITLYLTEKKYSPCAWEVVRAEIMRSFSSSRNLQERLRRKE

binding result [1]: no binding
binding result [2]: no binding
binding result [3]: no binding
binding result [4]: no binding
binding result (human IFNγ): no binding
binding result (human IFNβ): no binding
B1: α8Y36-2 mAb (antibody, IgG1, V domains shown)
VH: EVQLVESGGGLVQPGRSLKLSCAASGFTFSKYGMAWVRQAPTKGLEWVASISTGGYNTYYRDSVKGRFTISRDNAKNTQYLQMDSLRSEDTATYYCTRPPAFDHWGQGIMVTVSS
VL: DIKMTQSPSFLSASVGDRVTINCKASQNIDKYLNWYQQKLGKAPRLLMYNTNNLQTGIPSRFSGSGSTTDFTLTISSLQPEDVATYFCSHHSVRPYTFGAGTKLELK
notes: also called mAb-IFNα8Y36-2; FERM BP-11082
binding result [5]: no binding

binding result [1]: no binding
binding result [2]: no binding
binding result [3]: no binding
binding result [4]: no binding
binding result (human IFNγ): no binding
binding result (human IFNβ): no binding
B2: α8#139 mAb (antibody, IgG1, V domains shown)
VH: QVQLKQSGPGLVQPSQSLSITCTVSGFSLTSYGVHWIRQSPGKGLEWLGVIWSGGNTDYNAAFISRLSITKDNSKSQFFFKMNSLQAKDTAIYYCARGRGNYVPFTYWGQGTLVTVSA
VL: QIVLTQSPTIMSASLGERVTMTCTASSSVSSTYLHWYQQKPGSSPKLLIYSTSNLASGVPARFSGSGSGTSYSLTISNMEAEDAATYYCHQYHRSPPMTFGGGTKLEIK
notes: HRP-labelled where used as labelled antibody; also called FERM BP-11081
binding result [5]: no binding
